Reference: patent US20220220224A1 (Hoffmann-La Roche, published 2022)

Assays:
[1] = molecular target: T1, recombinant biotinylated monomeric Fc fusion of human Folate Receptor 1 (huFolR1 ECD-AcTev-Fcknob-Avi tag … (human, UniProt P0DOX5 223-449 = IgG part, biotin on the C-terminal Avi tag)); test: SPR ProteOn, Fab analyte on immobilized antigen-Fc
T1 construct: also called huFolR1-Fc; human FolR1-Fc
Method: (§1) Immobilization of antigens (ligand): Recombinant antigens were diluted with PBST (10 mM phosphate, 150 mM sodium chloride pH 7.4, 0.005% Tween 20) to 10 μg/ml, then injected at 30 μl/minute in vertical orientation. Injection of analytes: For ‘one-shot kinetics’ measurements, injection direction was changed to horizontal orientation, two-fold dilution series of purified Fab (varying concentration ranges) were injected simultaneously along separate channels 1-5, with association times of 150 or 200 s, and dissociation times of 200 or 600 s, respectively. Buffer (PBST) was injected along the sixth channel to provide an “in-line” blank for referencing. Association rate constants (kₒₙ) and dissociation rate constants (koff) were calculated using a simple one-to-one Langmuir binding model in ProteOn Manager v3.1 software by simultaneously fitting the association and dissociation sensorgrams. The equilibrium dissociation constant (KD) was calculated as the ratio koff/kₒₙ.

[2] = molecular target: T2, recombinant biotinylated monomeric Fc fusion of cynomolgus Folate Receptor 1 (cy FolR1 ECD-AcTev-Fcknob-Avi … (cynomolgus, UniProt P0DOX5 223-449 = IgG part, biotin on the C-terminal Avi tag)); test: SPR ProteOn, Fab analyte on immobilized antigen-Fc
T2 construct: also called cyFolR1-Fc; cyno FolR1
Method: as §1

[3] = molecular target: T3, recombinant biotinylated monomeric Fc fusion of murine Folate Receptor 1 (mu FolR1 ECD-AcTev-Fcknob-Avitag … (murine, UniProt P0DOX5 223-449 = IgG part, biotin on the C-terminal Avi tag)); test: SPR ProteOn, Fab analyte on immobilized antigen-Fc
T3 construct: also called muFolR1-Fc; murine FolR1
Method: as §1

[4] = molecular target: T4, recombinant biotinylated monomeric Fc fusion of human Folate Receptor 2 (hu FolR2 ECD-AcTev-Fcknob-Avi tag … (human, UniProt P0DOX5 223-449 = IgG part, biotin on the C-terminal Avi tag)); test: SPR ProteOn, Fab analyte on immobilized antigen-Fc
T4 construct: also called FolR2-Fc
Method: as §1

[5] = molecular target: T5, recombinant biotinylated monomeric Fc fusion of human Folate Receptor 3 (hu FolR3 ECD-AcTev-Fcknob-Avi tag … (human, UniProt P0DOX5 223-449 = IgG part, biotin on the C-terminal Avi tag)); test: SPR ProteOn, Fab analyte on immobilized antigen-Fc
T5 construct: also called FolR3-Fc
Method: as §1

[6] = molecular target: T6, human FolR1 expressed on cells (HeLa, SKOV3, HT-29, transfected HEK cells) (human, UniProt P15328 25-234); test: cell-based or functional assay
[7] = molecular target: T6, human FolR1 expressed on cells (HeLa, …); test: cell-based or functional assay; remark: listed apart in the source
[8] = molecular target: T1, recombinant biotinylated monomeric Fc …; test: SPR Biacore, avidity (bivalent)
[9] = molecular target: T1, recombinant biotinylated monomeric Fc …; test: SPR Biacore, affinity (monovalent)
[10] = molecular target: T1, recombinant biotinylated monomeric Fc …; test: SPR Biacore, affinity (monovalent), antibody captured via anti-Fab
Method: (§2) All SPR experiments were performed on a Biacore T200 at 25° C. with HBS-EP as running buffer (0.01 M HEPES pH 7.4, 0.15 M NaCl, 3 mM EDTA, 0.005% Surfactant P20, Biacore, GE Healthcare). The molecules used for affinity and avidity determination are described in Table 45.
(§3) For affinity measurement, direct coupling of around 12000 resonance units (RU) of the anti-human Fab specific antibody (Fab capture kit, GE Healthcare) was performed on a CM5 chip at pH 5.0 using the standard amine coupling kit (GE Healthcare). Anti-FolR1 T cell bispecifics were captured at 20 nM with a flow rate of 10 μl/min for 40 sec, the reference flow cell was left without capture. […] The dissociation phase was monitored for 300 s and triggered by switching from the sample solution to HBS-EP. The chip surface was regenerated after every cycle using a double injection of 60 sec 10 mM Glycine-HCl pH 2.1. Bulk refractive index differences were corrected for by subtracting the response obtained on the reference flow cell 1. The affinity constants for the interactions were derived from the rate constants by fitting to a 1:1 Langmuir binding using the Bia Evaluation software (GE Healthcare). For low affinity kinetics with association and dissociation phases too fast to be fitted by the 1:1 Langmuir binding model, the steady state analysis model was applied using the Bia Evaluation software (GE Healthcare). The steady state analysis gives the KD of the binding reaction at equilibrium.

[11] = molecular target: T1, recombinant biotinylated monomeric Fc …; test: SPR Biacore, avidity (bivalent, apparent KD), antigen-Fc on SA chip
Method: as §2
(§4) Recombinant biotinylated monomeric Fc fusions of human, cynomolgus and murine Folate Receptor 1 (FolR1-Fc) were directly coupled on a SA chip using the standard coupling instruction (Biacore, GE Healthcare). The immobilization level was about 200-300 RU. […] The dissociation was monitored for 240 or 600 seconds. The chip surface was regenerated after every cycle using a double injection of 30 sec 10 mM Glycine-HCl pH 1.5. Bulk refractive index differences were corrected for by subtracting the response obtained on reference flow cell immobilized with recombinant biotinylated murine IL2R Fc fusion (unrelated Fc fused receptor). The binding curves resulting from the bivalent binding of the T cell bispecifics were approximated to a 1:1 Langmuir binding (even though it is a 1:2 binding) and fitted with that model to get an apparent KD representing the avidity of the bivalent binding. The apparent avidity constants for the interactions were derived from the rate constants of the fitting using the Bia Evaluation software (GE Healthcare).

[12] = molecular target: T2, recombinant biotinylated monomeric Fc …; test: as above
Method: as §2, §4

[13] = molecular target: T2, recombinant biotinylated monomeric Fc …; test: SPR Biacore, affinity (monovalent), antibody captured via anti-Fab, steady state analysis
Method: as §2, §3

[14] = molecular target: T7, human FolR2 on transfected HEK cells (human, UniProt P14207 17-230); test: flow cytometry on transfected HEK cells
T7 construct: whole, on cells

[15] = molecular target: T3, recombinant biotinylated monomeric Fc …; test: SPR Biacore, single injection on immobilized antigen-Fc
In short: (§5)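 Biacore T200 at 25 °C in HBS-EP (HEPES pH 7.4). Biotinylated FolR-Fc fusions captured on SA chip at about 300-400 RU. IgGs injected once at 500 nM for 60 s to assess cross-reactivity and specificity.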

[16] = molecular target: T4, recombinant biotinylated monomeric Fc …; test: as above
In short: as §5

[17] = molecular target: T5, recombinant biotinylated monomeric Fc …; test: as above
In short: as §5

[18] = molecular target: T1, recombinant biotinylated monomeric Fc …; test: as above
In short: as §5

[19] = molecular target: T2, recombinant biotinylated monomeric Fc …; test: as above
In short: as §5

T6 sequence (P15328 25-234): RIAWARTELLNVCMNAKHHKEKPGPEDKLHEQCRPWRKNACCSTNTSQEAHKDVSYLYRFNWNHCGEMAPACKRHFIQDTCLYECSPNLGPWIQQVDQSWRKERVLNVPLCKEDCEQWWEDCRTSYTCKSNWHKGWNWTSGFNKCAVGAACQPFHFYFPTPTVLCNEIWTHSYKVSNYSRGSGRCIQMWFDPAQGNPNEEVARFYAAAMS
T7 sequence (P14207 17-230): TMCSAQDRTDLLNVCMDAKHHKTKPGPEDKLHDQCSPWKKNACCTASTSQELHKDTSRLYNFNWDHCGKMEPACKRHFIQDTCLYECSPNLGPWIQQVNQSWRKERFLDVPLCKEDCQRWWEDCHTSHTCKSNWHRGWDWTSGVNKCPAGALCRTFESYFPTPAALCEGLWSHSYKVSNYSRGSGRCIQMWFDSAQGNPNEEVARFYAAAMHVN

B1: 9D11 Fab (Fab, V domains shown)
VH: QVQLVQSGAEVKKPGASVKVSCKASGYTFTSYYMHWVRQAPGQGLEWMGIINPSGGPTSYAQKFQGRVTMTRDTSTSTVYMELSSLRSEDTAVYYCARGDFAWLDYWGQGTLVTVSS
VL: not shown
notes: bacterial Fab
B1 was tested, and the Kd [1] was 8.64 nM, the Kd [2] was 5.29 nM and the binding result [3] was “no binding”. B1: no binding [4]; no binding [5].

B2: 36F2 Fab (Fab, V domains shown)
VH: QVQLVQSGAEVKKPGASVKVSCKASGYTFTSYYMHWVRQAPGQGLEWMGIINPSGGSTSYAQKFQGRVTMTHDTSTSTVYMELSSLRSEDTAVYYCARSFFTGFHLDYWGQGTLVTVSS
VL: EIVLTQSPGTLSLSPGERATLSCRASQSVSSSYLAWYQQKPGQAPRLLIYGASSRATGIPDRFSGSGSGTDFTLTISRLEPEDFAVYYCQQYTNEHYYTFGQGTKVEIK
notes: bacterial Fab
B2 showed a Kd [1] of 1810 nM, a Kd [2] of 1640 nM and a Kd [3] of 737 nM. B2: no binding [4]; no binding [5].

B3: 14E4 Fab (Fab, V domains shown)
VH: not shown
VL: EIVLTQSPGTLSLSPGERATLSCRASQSVSSSYLAWYQQKPGQAPRLLIYGASSRATGIPDRFSGSGSGTDSTLTISRLEPEDFAVYYCQQPTSSPITFGQGTKVEIK
notes: bacterial Fab
B3: no binding [1]; no binding [2]; no binding [4]. B3: no binding [5].

B4: 16D5 G49S/K53A TCB (2+1 inverted, common light chain) (bispecific antibody, V domains shown)
VH 1: not shown
VL: QTVVTQEPSLTVSPGGTVTLTCGSSTGAVTTSNYANWVQQKPGQAPRGLIGGTNARAPGTPARFSGSLLGGKAALTLSGVQPEDEAEYYCALWYSNLWVFGGGTKLTVL
VH 2: not shown
B4 was tested, and the “EC50 of T-cell killing of Hela, 24 h” value [6] was 0.0044 nM, the “EC50 of T-cell killing of SKov-3, 24 h” value [6] was 1.7 nM and the “EC50 of T-cell killing of HT-29, 48 h” value [7] was 1.79 nM. The “EC50 of T-cell killing of Hela, 48 h” value [7] was 0.0005 nM, the “EC50 of T-cell killing of SKov-3, 48 h” value [7] was 0.95 nM and the “fold lower avidity than 16D5 WT (3 nM)” value [8] was 13 fold. For the same binder, the “fold lower affinity than 16D5 WT (57 nM)” value [9] was 30 fold, the Kd [10] was 1700 nM and the koff [10] was 0.0159 s⁻¹. For the same binder, the kon [10] was 9170 M⁻¹ s⁻¹, the Kd [11] was 40 nM and the koff [11] was 0.00586 s⁻¹. The kon [11] was 132000 M⁻¹ s⁻¹, the Kd [12] was 70 nM and the koff [12] was 0.0256 s⁻¹. It also gave a kon [12] of 373000 M⁻¹ s⁻¹ and a Kd [13] of 1900 nM.

B5: 16D5 IgG (antibody, V domains shown)
VH: not shown
VL: QAVVTQEPSLTVSPGGTVTLTCGSSTGAVTTSNYANWVQEKPGQAFRGLIGGTNKRAPGTPARFSGSLLGGKAALTLSGAQPEDEAEYYCALWYSNLWVFGGGTKLTVL
notes: human IgG1
B5: no binding [14]; no binding (tested: 500 nM) [15]; no binding (tested: 500 nM) [16]. B5: no binding (tested: 500 nM) [17].

B6: 19H3 IgG (antibody, V domains shown)
VH: QVQLVQSGAEVKKPGASVKVSCKASGYTFTSYYMHWVRQAPGQGLEWMGIINPSGGSTSYAQKFQGRVTMTRDTSTSTVYMELSSLRSEDTAVYYCARTGWSRWGYMDYWGQGTLVTVSS
VL: QAVVTQEPSLTVSPGGTVTLTCGSSTGAVTTSNYANWVQEKPGQAFRGLIGGTNKRAPGTPARFSGSLLGGKAALTLSGAQPEDEAEYYCALWYSNLWVFGGGTKLTVL
notes: human IgG1
B6: no binding (tested: 500 nM) [18]; no binding (tested: 500 nM) [19]; no binding (tested: 500 nM) [16]. B6: no binding (tested: 500 nM) [17].

B7: 20G6 IgG (antibody, V domains shown)
VH: QVQLVQSGAEVKKPGASVKVSCKASGYTFTSYYMHWVRQAPGQGLEWMGIINPSGGSTSYAQKFQGRVTMTRDTSTSTVYMELSSLRSEDTAVYYCARGEWIRYYHFDYWGQGTLVTVSS
VL: QAVVTQEPSLTVSPGGTVTLTCGSSTGAVTTSNYANWVQEKPGQAFRGLIGGTNKRAPGTPARFSGSLLGGKAALTLSGAQPEDEAEYYCALWYSNLWVFGGGTKLTVL
notes: human IgG1
B7: no binding (tested: 500 nM) [18]; no binding (tested: 500 nM) [19]; no binding (tested: 500 nM) [16]. B7: no binding (tested: 500 nM) [17].
